Numbering of substitutions follows the chain as printed. In names and notes the source's numbering stands.
B1: dBBDu183H P61F / dBBDu072L (antibody, name in Kabat numbering, V domains shown)
VH: QVQLVESGGGLVQPGRSLRLSCAASGFTFSNAWMHWVRQAPGKGLEWVAQIKDKGNAYAAYYAFSVKGRFTISRDDSKNSIYLQMNSLKTEDTAVYYCHYVHYASASTVLPAFGVDAWGQGTTVTVSS
VL: DIVMTQSPLSLPVTPGEPASISCQASQELVHMNRNTYLHWYQQKPGQAPRLLIYKVSNRFPGVPDRFSGSGSGTDFTLKISRVEAEDVGVYYCAQGTSVPFTFGQGTKLEIK
notes: as m1, one VH change
B2: dBBDu183H S99R / dBBDu072L (antibody, name in Kabat numbering, V domains shown)
VH: B1 VH with F64P, S105R
VL: B1 VL
notes: as m1, one VH change
B3: dBBDu183H T100bS / dBBDu072L (antibody, name in Kabat numbering, V domains shown)
VH: B1 VH with F64P, T108S
VL: B1 VL
notes: as m1, one VH change
B4: dBBDu183H P61H / dBBDu072L (antibody, name in Kabat numbering, V domains shown)
VH: B1 VH with F64H
VL: B1 VL
notes: as m1, one VH change
B5: dBBDu183H S62H / dBBDu072L (antibody, name in Kabat numbering, V domains shown)
VH: B1 VH with F64P, S65H
VL: B1 VL
notes: as m1, one VH change
B6: dBBDu183H P61T / dBBDu072L (antibody, name in Kabat numbering, V domains shown)
VH: B1 VH with F64T
VL: B1 VL
notes: as m1, one VH change
B7: dBBDu183H S99T / dBBDu072L (antibody, name in Kabat numbering, V domains shown)
VH: B1 VH with F64P, S105T
VL: B1 VL
notes: as m1, one VH change
B8: dBBDu183H P100eS / dBBDu072L (antibody, name in Kabat numbering, V domains shown)
VH: B1 VH with F64P, P111S
VL: B1 VL
notes: as m1, one VH change
B9: dBBDu183H P100eQ / dBBDu072L (antibody, name in Kabat numbering, V domains shown)
VH: B1 VH with F64P, P111Q
VL: B1 VL
notes: as m1, one VH change
B10: dBBDu183H P61K / dBBDu072L (antibody, name in Kabat numbering, V domains shown)
VH: B1 VH with F64K
VL: B1 VL
notes: as m1, one VH change
B11: dBBDu183H S99G / dBBDu072L (antibody, name in Kabat numbering, V domains shown)
VH: B1 VH with F64P, S105G
VL: B1 VL
notes: as m1, one VH change
B12: dBBDu183H S99K / dBBDu072L (antibody, name in Kabat numbering, V domains shown)
VH: B1 VH with F64P, S105K
VL: B1 VL
notes: as m1, one VH change
B13: dBBDu183H S62Y / dBBDu072L (antibody, name in Kabat numbering, V domains shown)
VH: B1 VH with F64P, S65Y
VL: B1 VL
notes: as m1, one VH change
B14: dBBDu183H P61W / dBBDu072L (antibody, name in Kabat numbering, V domains shown)
VH: B1 VH with F64W
VL: B1 VL
notes: as m1, one VH change
B15: dBBDu183H P61G / dBBDu072L (antibody, name in Kabat numbering, V domains shown)
VH: B1 VH with F64G
VL: B1 VL
notes: as m1, one VH change
B16: dBBDu183H S62F / dBBDu072L (antibody, name in Kabat numbering, V domains shown)
VH: B1 VH with F64P, S65F
VL: B1 VL
notes: as m1, one VH change
B17: dBBDu183H P100eH / dBBDu072L (antibody, name in Kabat numbering, V domains shown)
VH: B1 VH with F64P, P111H
VL: B1 VL
notes: as m1, one VH change
B18: dBBDu183H P100eE / dBBDu072L (antibody, name in Kabat numbering, V domains shown)
VH: B1 VH with F64P, P111E
VL: B1 VL
notes: as m1, one VH change
B19: dBBDu183H P61Y / dBBDu072L (antibody, name in Kabat numbering, V domains shown)
VH: B1 VH with F64Y
VL: B1 VL
notes: as m1, one VH change
B20: dBBDu183H S62R / dBBDu072L (antibody, name in Kabat numbering, V domains shown)
VH: B1 VH with F64P, S65R
VL: B1 VL
notes: as m1, one VH change
B21: dBBDu183H P100eT / dBBDu072L (antibody, name in Kabat numbering, V domains shown)
VH: B1 VH with F64P, P111T
VL: B1 VL
notes: as m1, one VH change
B22: dBBDu183H T100bQ / dBBDu072L (antibody, name in Kabat numbering, V domains shown)
VH: B1 VH with F64P, T108Q
VL: B1 VL
notes: as m1, one VH change
B23: dBBDu183H P61S / dBBDu072L (antibody, name in Kabat numbering, V domains shown)
VH: B1 VH with F64S
VL: B1 VL
notes: as m1, one VH change
B24: dBBDu183H P61Q / dBBDu072L (antibody, name in Kabat numbering, V domains shown)
VH: B1 VH with F64Q
VL: B1 VL
notes: as m1, one VH change
B25: dBBDu183H P100eN / dBBDu072L (antibody, name in Kabat numbering, V domains shown)
VH: B1 VH with F64P, P111N
VL: B1 VL
notes: as m1, one VH change
B26: dBBDu183H S99Y / dBBDu072L (antibody, name in Kabat numbering, V domains shown)
VH: B1 VH with F64P, S105Y
VL: B1 VL
notes: as m1, one VH change
B27: dBBDu183H S62W / dBBDu072L (antibody, name in Kabat numbering, V domains shown)
VH: B1 VH with F64P, S65W
VL: B1 VL
notes: as m1, one VH change
B28: dBBDu183H S62K / dBBDu072L (antibody, name in Kabat numbering, V domains shown)
VH: B1 VH with F64P, S65K
VL: B1 VL
notes: as m1, one VH change
B29: dBBDu183H P100eR / dBBDu072L (antibody, name in Kabat numbering, V domains shown)
VH: B1 VH with F64P, P111R
VL: B1 VL
notes: as m1, one VH change
B30: dBBDu183H S62D / dBBDu072L (antibody, name in Kabat numbering, V domains shown)
VH: B1 VH with F64P, S65D
VL: B1 VL
notes: as m1, one VH change
B31: dBBDu183H S62T / dBBDu072L (antibody, name in Kabat numbering, V domains shown)
VH: B1 VH with F64P, S65T
VL: B1 VL
notes: as m1, one VH change
B32: dBBDu183H S62Q / dBBDu072L (antibody, name in Kabat numbering, V domains shown)
VH: B1 VH with F64P, S65Q
VL: B1 VL
notes: as m1, one VH change
B33: dBBDu183H T100bN / dBBDu072L (antibody, name in Kabat numbering, V domains shown)
VH: B1 VH with F64P, T108N
VL: B1 VL
notes: as m1, one VH change
B34: dBBDu183H S62N / dBBDu072L (antibody, name in Kabat numbering, V domains shown)
VH: B1 VH with F64P, S65N
VL: B1 VL
notes: as m1, one VH change
B35: dBBDu183H P61N / dBBDu072L (antibody, name in Kabat numbering, V domains shown)
VH: B1 VH with F64N
VL: B1 VL
notes: as m1, one VH change
B36: dBBDu183H S62V / dBBDu072L (antibody, name in Kabat numbering, V domains shown)
VH: B1 VH with F64P, S65V
VL: B1 VL
notes: as m1, one VH change
B37: dBBDu183H S62G / dBBDu072L (antibody, name in Kabat numbering, V domains shown)
VH: B1 VH with F64P, S65G
VL: B1 VL
notes: as m1, one VH change
B38: dBBDu183H S62E / dBBDu072L (antibody, name in Kabat numbering, V domains shown)
VH: B1 VH with F64P, S65E
VL: B1 VL
notes: as m1, one VH change
B39: dBBDu183H P100eG / dBBDu072L (antibody, name in Kabat numbering, V domains shown)
VH: B1 VH with F64P, P111G
VL: B1 VL
notes: as m1, one VH change
B40: dBBDu183H P61R / dBBDu072L (antibody, name in Kabat numbering, V domains shown)
VH: B1 VH with F64R
VL: B1 VL
notes: as m1, one VH change
B41: dBBDu183H S99Q / dBBDu072L (antibody, name in Kabat numbering, V domains shown)
VH: B1 VH with F64P, S105Q
VL: B1 VL
notes: as m1, one VH change
B42: dBBDu183H P100eD / dBBDu072L (antibody, name in Kabat numbering, V domains shown)
VH: B1 VH with F64P, P111D
VL: B1 VL
notes: as m1, one VH change
B43: dBBDu183H P100eK / dBBDu072L (antibody, name in Kabat numbering, V domains shown)
VH: B1 VH with F64P, P111K
VL: B1 VL
notes: as m1, one VH change
B44: dBBDu183H S99H / dBBDu072L (antibody, name in Kabat numbering, V domains shown)
VH: B1 VH with F64P, S105H
VL: B1 VL
notes: as m1, one VH change

What follows are binders tested against T1, Human CD137 ECD (human) (assay: SPR, vs parent H183/L072).
T1 construct: also called 4-1BB
T1 sequence (chain, as listed by the source limits assumed): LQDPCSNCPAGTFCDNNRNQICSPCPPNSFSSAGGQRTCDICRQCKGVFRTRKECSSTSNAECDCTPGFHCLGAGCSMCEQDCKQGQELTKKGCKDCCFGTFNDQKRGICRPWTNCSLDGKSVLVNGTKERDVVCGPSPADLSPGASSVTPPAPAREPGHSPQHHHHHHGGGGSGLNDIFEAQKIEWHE

Point of comparison: B30, “fold change of affinity” value 0.9 fold. Against it:
- B1 — lower, 0.7 fold
- B2 — higher, 1.1 fold
- B3 — higher, 1 fold
- B4 — the same, 0.9 fold
- B5 — the same, 0.9 fold
- B6 — higher, 1.4 fold
- B7 — lower, 0.6 fold
- B8 — lower, 0.4 fold
- B9 — lower, 0.4 fold
- B10 — lower, 0.8 fold
- B11 — higher, 1 fold
- B12 — higher, 1.2 fold
- B13 — lower, 0.7 fold
- B14 — lower, 0.8 fold
- B15 — higher, 1 fold
- B16 — lower, 0.5 fold
- B17 — lower, 0.1 fold
- B18 — lower, 0.8 fold
- B19 — lower, 0.7 fold
- B20 — higher, 1.1 fold
- B21 — lower, 0.2 fold
- B22 — lower, 0.3 fold
- B23 — higher, 1.1 fold
- B24 — lower, 0.6 fold
- B25 — lower, 0.2 fold
- B26 — lower, 0.5 fold
- B27 — lower, 0.8 fold
- B28 — the same, 0.9 fold
- B29 — lower, 0.3 fold
- B31 — higher, 1 fold
- B32 — higher, 1 fold
- B33 — lower, 0.1 fold
- B34 — the same, 0.9 fold
- B35 — higher, 1.2 fold
- B36 — the same, 0.9 fold
- B37 — higher, 1 fold
- B38 — lower, 0.8 fold
- B39 — lower, 0.4 fold
- B40 — higher, 1 fold
- B41 — lower, 0.6 fold
- B42 — lower, 0.3 fold
- B43 — lower, 0.3 fold
- B44 — higher, 1.5 fold

Source: patent US20210388087A1 (Chugai, published 2021)
